Assay results as given in patent US20220267443A1 (published 2022).

How the values were obtained:
Assay in all cases: SPR
[1] = target: Cynomolgus CTLA-4 monomer
[2] = target: Human CTLA-4 monomer
[3] = target: recombinant cynomolgus CTLA-4-Fc (Sino Biological, #90213-C02H)
[4] = target: recombinant human CTLA-4-Fc (R&D Systems, #7268-CT) (UniProt P16410 36-161)
recombinant human CTLA-4-Fc (R&D Systems, #7268-CT), sequence (P16410 36-161): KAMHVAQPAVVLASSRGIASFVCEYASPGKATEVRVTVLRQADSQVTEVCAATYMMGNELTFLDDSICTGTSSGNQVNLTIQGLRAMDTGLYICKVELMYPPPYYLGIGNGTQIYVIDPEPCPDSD

recombinant cynomolgus CTLA-4-Fc (Sino Biological, #90213-C02H), sequence (chain, as listed by the source C02H): as the sequence (P16410 36-161) above, with S14N, L106M counted along it

Kd [1]: 2.1 nM | Kd [2]: 2 nM | Kd [3]: 4.4 nM | Kd [4]: 1.7 nM
B1: AGEN2041w (antibody)
heavy: EVQLVESGGGLVKPGGSLRLSCAASGFTFSSYSMNWVRQAPGKGLEWVSSISSSSSYIYYADSVKGRFTISRDNAKNSLYLQMNSLRAEDTAVYYCARVGLMGPFDIWGQGTMVTVSSASTKGPSVFPLAPCSRSTSESTAALGCLVKDYFPEPVTVSWNSGALTSGVHTFPAVLQSSGLYSLSSVVTVPSSNFGTQTYTCNVDHKPSNTKVDKTVERKCCVECPPCPAPPVAGPSVFLFPPKPKDTLMISRTPEVTCVVVDVSHEDPEVQFNWYVDGVEVHNAKTKPREEQFNSTFRVVSVLTVVHQDWLNGKEYKCKVSNKGLPAPIEKTISKTKGQPREPQVYTLPPSREEMTKNQVSLTCLVKGFYPSDIAVEWESNGQPENNYKTTPPMLDSDGSFFLYSKLTVDKSRWQQGNVFSCSVMHEALHNHYTQKSLSLSPG
light: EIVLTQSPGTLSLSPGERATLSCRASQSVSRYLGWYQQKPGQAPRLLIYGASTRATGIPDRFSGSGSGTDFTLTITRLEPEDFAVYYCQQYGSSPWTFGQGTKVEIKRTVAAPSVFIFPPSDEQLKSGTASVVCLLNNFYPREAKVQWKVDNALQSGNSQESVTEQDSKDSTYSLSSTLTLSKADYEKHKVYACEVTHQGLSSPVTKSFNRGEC
